From patent US20230192896A1 (published 2023)
Residue numbers refer to the chain shown, from its start. Each block holds one binder with its values, some of them ahead of it.

Molecular target: free FIXa (activated Factor IX) (UniProt P00740 47-191; P00740 227-461)
Assay: BLI

- Kd: 20.6 nM
B1: BIIB-9-567 (antibody, V domains shown)
VH: QVQLVQSGAEVKKPGASVKVSCKASGYTFTSYYMHWVRQAPGQGLEWMGIINPSGGSTSYAQKFQGRVTMTRDTSTSTVYMELSSLRSEDTAVYYCARLGRRYYAYDGMDVWGQGTTVTVSS
VL: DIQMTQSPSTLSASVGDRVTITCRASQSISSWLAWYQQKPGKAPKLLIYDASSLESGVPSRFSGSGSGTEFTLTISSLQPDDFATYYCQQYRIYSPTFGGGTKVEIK

- Kd: 8.76 nM
B2: BIIB-9-451 (antibody, V domains shown)
VH: QLQLQESGPGLVKPSETLSLTCTVSGGSISSSSYYWGWIRQPPGKGLEWIGSISYSGSTYYNPSLKSRVTISVDTSKNQFSLKLSSVTAADTAVYYCARDSGGYYYQGFDYWGQGTLVTVSS
VL: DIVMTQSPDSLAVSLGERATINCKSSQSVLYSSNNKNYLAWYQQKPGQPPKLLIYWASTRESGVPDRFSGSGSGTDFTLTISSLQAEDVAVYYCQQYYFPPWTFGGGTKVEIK

- Kd: 1.1 nM
B3: BIIB-9-558 (antibody, V domains shown)
VH: EVQLVESGGGLVKPGGSLRLSCAASGFTFSSYSMNWVRQAPGKGLEWVSSISSSSSYIYYADSVKGRFTISRDNAKNSLYLQMNSLRAEDTAVYYCARSYGYGYHDFDLWGRGTLVTVSS
VL: DIQMTQSPSTLSASVGDRVTITCRASQSIGSWLAWYQQKPGKAPKLLIYKASSLESGVPSRFSGSGSGTEFTLTISSLQPDDFATYYCQQAGSYSFTFGGGTKVEIK

- Kd: 9.11 nM
B4: BIIB-9-471 (antibody, V domains shown)
VH: QVQLQESGPGLVKPSQTLSLTCTVSGGSISSGGYYWSWIRQHPGKGLEWIGYIYYSGSTYYNPSLKSRVTISVDTSKNQFSLKLSSVTAADTAVYYCARSGVSGSGSDNWFDPWGQGTTVTVSS
VL: EIVLTQSPATLSLSPGERATLSCRASQSVSRYLAWYQQKPGQAPRLLIYDASNRATGIPARFSGSGSGTDFTLTISSLEPEDFAVYYCQQDYNYPFTFGGGTKVEIK

- Kd: 15.8 nM
B5: BIIB-9-565 (antibody, V domains shown)
VH: QLQLQESGPGLVKPSETLSLTCTVSGGSISSSSYYWGWIRQPPGKGLEWIGSIYYSGSTYYNPSLKSRVTISVDTSKNQFSLKLSSVTAADTAVYYCARAGMYSSYANWFDPWGQGTLVTVSS
VL: B4 VL with R31S, Y92S, Y94L

- Kd: 51.5 nM
B6: BIIB-9-1268 (antibody, V domains shown)
VH: QVQLVQSGAEVKKPGASVKVSCKASGYTFTSYYMHWVRQAPGQGLEWMGIINPSGGSTSYAQKFQGRVTMTRDTSTSTVYMELSSLRSEDTAVYYCARDPPSWYVFDIWGQGTMVTVSS
VL: B4 VL with L4M, R31S, D91A, Y92T, N93V, Y94W

- Kd: 11.9 nM
B7: BIIB-9-619 (antibody, V domains shown)
VH: QVQLVQSGAEVKKPGASVKVSCKASGYTFTSYYMHWVRQAPGQGLEWMGIINPSGGSTSYAQKFQGRVTMTRDTSTSTVYMELSSLRSEDTAVYYCARDGPRVSDYYMDVWGKGTTVTVSS
VL: B4 VL with R31S, D91R, Y92D, Y94W

- Kd: 14 nM
B8: BIIB-9-612 (antibody, V domains shown)
VH: QVQLVQSGAEVKKPGASVKVSCKASGYTFTSYYMHWVRQAPGQGLEWMGIINPSGGSTSYAQKFQGRVTMTRDTSTSTVYMELSSLRSEDTAVYYCARDAGYHWYGMDVWGQGTTVTVSS
VL: B4 VL with D91S, Y92S, N93L, Y94F, F96L

- Kd: 17.2 nM
B9: BIIB-9-473 (antibody, V domains shown)
VH: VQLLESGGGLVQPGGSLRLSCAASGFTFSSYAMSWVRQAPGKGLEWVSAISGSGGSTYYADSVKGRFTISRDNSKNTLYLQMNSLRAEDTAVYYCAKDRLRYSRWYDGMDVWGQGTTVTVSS
VL: B4 VL with R31S, D91R, Y92S, N93F, Y94L, F96Y

- Kd: 42.6 nM
B10: BIIB-9-1266 (antibody, V domains shown)
VH: B8 VH with A100H, Y102W, H103A, W104I
VL: B4 VL with L4M, R31S, A51S, D91R, Y92L, Y94F

- Kd: 2.98 nM
B11: BIIB-9-416 (antibody, V domains shown)
VH: QVQLVQSGAEVKKPGASVKVSCKASGYTFTSYYMHWVRQAPGQGLEWMGIINPSGGSTSYAQKFQGRVTMTRDTSTSTVYMELSSLRSEDTAVYYCAREGPMLDYPTYSNWFDPWGQGTLVTVS
VL: B4 VL with L4M, R31S, A51S, D91R, Y92V, N93V, Y94W, F96P

- Kd: 0.669 nM
B12: BIIB-9-1287 (antibody, V domains shown)
VH: QLQLQESGPGLVKPSETLSLTCTVSGGSISSSDYYWGWIRQPPGKGLEWIGSIYYSGSTYYNPSLKSRVTISVDTSKNQFSLKLSSVTAADTAVYYCARSPRHKVRGPNWFDPWGQGTLVTVSS
VL: EIVLTQSPGTLSLSPGERATLSCRASQSVSSSYLAWYQQKPGQAPRLLIYGASSRATGIPDRFSGSGSGTDFTLTISRLEPEDFAVYYCQQYHLHPTFGGGTKVEIK

- Kd: 11.4 nM
B13: BIIB-9-608 (antibody, V domains shown)
VH: QLQLQESGPGLVKPSETLSLTCTVSGGSISSSSYYWGWIRQPPGKGLEWIGSIYYSGSTYYNPSLKSRVTISVDTSKNQFSLKLSSVTAADTAVYYCARDRLETSEAGMDVWGQGTTVTVSS
VL: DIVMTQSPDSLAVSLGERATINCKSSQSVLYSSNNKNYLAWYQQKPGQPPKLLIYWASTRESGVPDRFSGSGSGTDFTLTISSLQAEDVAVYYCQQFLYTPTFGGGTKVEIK

- Kd: 17.4 nM
B14: BIIB-9-564 (antibody, V domains shown)
VH: QVQLQESGPGLVKPSETLSLTCAVSGYSISSGYYWAWIRQPPGKGLEWIGSIYHSGSTYYNPSLKSRVTISVDTSKNQFSLKLSSVTAADTAVYYCARDPGYSWEYFDYWGQGTLVTVSS
VL: DIQMTQSPSSLSASVGDRVTITCRASQSISSYLNWYQQKPGKAPKLLIYAASSLQSGVPSRFSGSGSGTDFTLTISSLQPEDFATYYCQQSVAVPPTFGGGTKVEIK

- Kd: 59.8 nM
B15: BIIB-9-1265 (antibody, V domains shown)
VH: QLQLQESGPGLVKPSETLSLTCTVSGGSISSSSYYWGWIRQPPGKGLEWIGSIYYSGSTYYNPSLKSRVTISVDTSKNQFSLKLSSVTAADTAVYYCARDGRHYYELFDYWGQGTLVTVSS
VL: B14 VL with L11V, S28G, Y32W, N34A, S91G, V92N, A93S, V94F, P96I

- Kd: 61.2 nM
B16: BIIB-9-631 (antibody, V domains shown)
VH: QVQLVQSGAEVKKPGASVKVSCKASGYTFTSYYMHWVRQAPGQGLEWMGIINPSGGSTSYAQKFQGRVTMTRDTSTSTVYMELSSLRSEDTAVYYCARAENRGDYEAWGQGTLVTVSS
VL: B14 VL with L11V, S28G, S31R, Y32W, N34A, S91R, V92T, A93S, V94F, P96L

- Kd: 30.8 nM
B17: BIIB-9-886 (antibody, V domains shown)
VH: QVQLVQSGAEVKKPGASVKVSCKASGYTFTSYYMHWVRQAPGQGLEWMGIINPSGGSTSYAQKFQGRVTMTRDTSTSTVYMELSSLRSEDTAVYYCARDPAHSYLDAFDIWGQGTMVTVSS
VL: B14 VL with L11V, S28G, Y32W, N34A, S91A, V92S, A93S, V94F, P96F

- Kd: 4.91 nM
B18: BIIB-9-578 (antibody, V domains shown)
VH: QLQLQESGPGLVKPSETLSLTCTVSGGSISSSSYYWGWIRQPPGKGLEWIGSISYSGSTYYNPSLKSRVTISVDTSKNQFSLKLSSVTAADTAVYYCARDKYQDYSFDIWGQGTMVTVSS
VL: B14 VL with L11V, S28G, S30D, Y32W, N34A, S91A, V92N, A93F, V94L, P96F

- Kd: 32.4 nM
B19: BIIB-9-1276 (antibody, V domains shown)
VH: B15 VH with G101V, R102G, H103R, Y104T, Y110I, L116M
VL: B14 VL with L11V, S28G, Y32W, N34A, S91G, V92N, A93S, V94F, P96I

- Kd: 8.99 nM
B20: BIIB-9-472 (antibody, V domains shown)
VH: EVQLVESGGGLVKPGGSLRLSCAASGFTFSSYSMNWVRQAPGKGLEWVSSISSSSSYIYYADSVKGRFTISRDNAKNSLYLQMNSLRAEDTAVYYCARGGRYSGSWSWNIWGQGTMVTVSS
VL: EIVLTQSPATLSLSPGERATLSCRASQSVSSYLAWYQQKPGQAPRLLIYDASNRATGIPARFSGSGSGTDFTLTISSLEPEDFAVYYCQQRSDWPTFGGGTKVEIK

- Kd: 18 nM
B21: BIIB-9-622 (antibody, V domains shown)
VH: QVQLVQSGAEVKKPGASVKVSCKASGYTFTSYYMHWVRQAPGQGLEWMGIINPSGGSTSYAQKFQGRVTMTRDTSTSTVYMELSSLRSEDTAVYYCARDGATTVSYLSFDIWGQGTMVTVSS
VL: EIVMTQSPATLSVSPGERATLSCRASQSVSSSLAWYQQKPGQAPRLLIYGASTRATGIPARFSGSGSGTEFTLTISSLQSEDFAVYYCQQHSTWPPTFGGGTKVEIK

- Kd: 16.5 nM
B22: BIIB-9-588 (antibody, V domains shown)
VH: QVQLVQSGAEVKKPGASVKVSCKASGYTFTSYYMHWVRQAPGQGLEWMGIINPSGGSTTYAQKFQGRVTMTRDTSTSTVYMELSSLRSEDTAVYYCARDGGGSYDYWSGYWYDVWGQGTTVTVSS
VL: B21 VL with S32N, H91A, S92Y, T93N, P96F

- Kd: 60.2 nM
B23: BIIB-9-1285 (antibody, V domains shown)
VH: B21 VH with H35V, D99V, G100P, A101T, T102Y, T103R, V104Y, S108A
VL: B21 VL with S32N, H91A, T93N, W94F

- Kd: 8.63 nM
B24: BIIB-9-477 (antibody, V domains shown)
VH: EVQLLESGGGLVQPGGSLRLSCAASGFTFSNYAMSWVRQAPGKGLEWVSAISGSGGSTYYADSVKGRFTISRDNSKNTLYLQMNSLRAEDTAVYYCARGGVYSSSWMRFWGQGTLVTVSS
VL: B21 VL with Y49F, H91D, S92V, T93N, P96I

- Kd: 108 nM
B25: BIIB-9-628 (antibody, V domains shown)
VH: QVQLVQSGAEVKKPGASVKVSCKASGYTFTSYYMHWVRQAPGQGLEWMGIINPSGGSTSYAQKFQGRVTMTRDTSTSTVYMELSSLRSEDTAVYYCAREPIAYGATLDLWGRGTLVTVSS
VL: EIVLTQSPGTLSLSPGERATLSCRASQSVSSDYLAWYQQKPGQAPRLLIYGASSRATGIPDRFSGSGSGTDFTLTISRLEPEDFAVYYCQQYVVFPFTFGGGTKVEIK
